According to the supplement of paper PMC9170038:

Tested on: MS2 coat protein
Assay: apparent KD of MS2 coat protein; designed switch direction (-1 OFF switch, 1 ON switch): 1; higher = weaker reporter binding
Method in brief: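 Designed RNA switches with common flanks were transcribed on Illumina chips by stalled E. coli RNA polymerase and titrated with SNAP-549-labelled MS2 coat protein, from 0.7 or 1.5 nM doubling to 3 µM, in Tris-HCl pH 7.5 buffer with KCl, MgCl2, BSA, DTT, tRNA and Tween-20. Steps lasted 0.8–1.5 h (lowest) to 10–20 min (highest). Titrations ran without input, with 200 uM small-molecule ligand, or with an oligonucleotide input. Normalised cluster fluorescence was curve-fitted, and apparent KD is the per-design median over clusters.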

[1] = input ligand: microRNA oligo, concentration not stated
[2] = Eterna round: R95, input ligand: FMN 200 uM
[3] = Eterna round: R95, input ligand: microRNA oligo, concentration not stated
[4] = Eterna round: R95, input ligand: none

Row | Sequence | apparent KD of MS2 coat protein (input ligand: FMN 200 uM) [nM] | apparent KD of MS2 coat protein [1] [nM] | apparent KD of MS2 coat protein (input ligand: none) [nM] | apparent KD of MS2 coat protein [2] [nM] | apparent KD of MS2 coat protein [3] [nM] | apparent KD of MS2 coat protein [4] [nM]
1 | AUCCUAAACACAGGAUAUCCCAGUCAUGAUCUGGGAGAAGGGUGGCCACAUGAGGAUCACCCAUGUGAAGUGCCAGAGGCACGA [MOD3 Xexeraed] (Eterna round: R96, puzzle: Same State NG 1) | 397 | 359 | 582 |  |  | 
2 | UCUUGGUUUUUGCUCGUUUUUUGUGUUGAACAUGAGGAUCACCCAUGUAUUGUACGGUCCGGUUUGGUAAUGGUCCA [JMF 9] (puzzle: Sensor for hsa-mir-208a) |  |  |  | 55.7 | 41.8 | 63.6
3 | UAUAAACAUGAGGAUCACCCAUGUAAUAAUAUGGGAGGAUAUCAGAUUUAAUUUAAUUUAUGAGAAGGCCUAAUAU [Mat - Same State 1 - Mod of Eli - D66] (Eterna round: R96, puzzle: Same State 1) |  | 427 |  |  |  | 
4 | GAGGGACAGACCAACAUGAGGAUCACCCAUGUCCUCGCAGGUCAGGAUAUCAUGAGGAUCACCCAUGAGAAGGGACGGUGAACC (Eterna round: R96, puzzle: Same State NG 3) | 155 | 125 | 149 |  |  | 
5 | CUGACAUGUCAAGGAUAUCACGUCGAUUAGACGUGAGAAGGUGAUCUACACAUGAGGAUCACCCAUGUGUUACGUGGGAGUCAG [Brourd's SSNG1/1-A2 mod 19] (Eterna round: R96, puzzle: Same State NG 1) | 54.9 | 113 | 162 |  |  | 
6 | AAACGGUCGCUGCGGCGGCCACAUGAGGAUCACCCAUGUACAUAGGAUAUCGCCUAAAAUACUGGCGAGAAGGGUGAUUAAAGA [Ergegeti] (Eterna round: R96, puzzle: Same State NG 3) | 132 | 36.2 | 79.4 |  |  | 
7 | ACAUUUAGCUCUUGCACAUGAGGAUCACCCAUGUUCGGUUCACAGGAUAUCUAGUCAAACGGGCUGGAGAAGGGUGGCAGGAGC [Islainon] (Eterna round: R96, puzzle: Same State NG 3) | 67.9 | 200 | 289 |  |  | 
8 | GCCGCGUUUCGCGCCUACAUGAGGAUCACCCAUGUUUGUUGGCAGGAUAUCGUCCGCUCUGCGGGCGAGAAGGGCUGUUGUGGU [salish99_SSNG3_R04_025] (Eterna round: R96, puzzle: Same State NG 3) | 38.4 | 18 | 25.4 |  |  | 
9 | AAAAGAAACACAGGAUAUACCGCAAUUAACACGGUAGAAGGGUGGGACAUGAGGAUCACCCAUGUGACCUGAACACCAGGUCGC [Enrien] (Eterna round: R96, puzzle: Same State NG 1) | 369 | 17.9 | 105 |  |  | 
10 | AAAAAACAUGAGGAUCACCCAUGUGAAAAUAUGGGAGGAUAUACAAACACGAAAGUGAAAGUAGAAGGCCUAAAAA [SS! MT 16] (Eterna round: R96, puzzle: Same State 1) | 17.2 | 95.4 | 127 |  |  | 
11 | AAUUAUUAACAUGAGGAUCACCCAUGUAUUAUUAUUAUUAUUAACAAGCUUUUUCAUGUUAUUAGCUCGUCUUAUAA [Bojan's Design 2] (puzzle: Sensor for hsa-mir-208a version 2) |  |  |  | 16.5 | 31.7 | 15.4
12 | AGCGAAAGCAGUCACAUGAGGAUCACCCAUGUAUUAACUAUUGAGGAUAUGCAGCGACGGGUGUAGCAGAAGGCAGUGAGAAGG [Eternabot solution 30] (Eterna round: R96, puzzle: Same State NG 3) | 54.4 | 52.1 | 61.1 |  |  | 
13 | AAGGGAUGAGCGUAGGAUAUAGGAGAAGUGACAUGAGGAUCACCCAUGUAGGAGGAGGGAUGAGACUAGAAGGACGAGGUAGGAG [JR_SS2_Sub060] (puzzle: Same State 2) |  |  |  | 43.6 | 56.7 | 76.8
14 | AGAUGUUAAUCAGGAUAUGGGCACAUGAGGAUCACCCAUGUAAAUUCGAUACUAUGUGGUCACGUCUAGAAGGGAUGGCUAACA [SameState NG2 #82] (Eterna round: R96, puzzle: Same State NG 2) | 189 | 158 | 250 |  |  | 
15 | CGUCGUUUGAUAGGAUAUCGCUUUGCAUGAGGAUCACCCAUGUUUACCACGCUGGUUUUUCUUUCCGAGAAGGAUUCUGAUGUU [salish99_SSNG02_r04_024] (Eterna round: R96, puzzle: Same State NG 2) | 42 | 29.2 | 39.6 |  |  | 
16 | CGGGAGAUCGUAGGAUAUCUAGGAUAUGAACGAGGAUCACCCGAGCAGCAUCAGCGCAUCAGAGGAGAGAAGGACGAUCAUGCG [pwkr ssNG2 2F5 2FMN.6] (Eterna round: R96, puzzle: Same State NG 2) | 751 | 31.7 | 741 |  |  | 

Row | Sequence | apparent KD of MS2 coat protein (input ligand: FMN 200 uM) [nM] | apparent KD of MS2 coat protein [1] [nM] | apparent KD of MS2 coat protein (input ligand: none) [nM] | apparent KD of MS2 coat protein [2] [nM] | apparent KD of MS2 coat protein [3] [nM] | apparent KD of MS2 coat protein [4] [nM]
17 | UUAACAUGAGGAUCACCCAUGUAUAGGGAGUUAGCAAUUUGACAGGAUAUUGAAGAUGUAGAUAGCAAGAAGGGUCGGUAGUCU [JR_SSNG3_Sub003] (Eterna round: R96, puzzle: Same State NG 3) | 39.9 | 41.3 | 45.9 |  |  | 
18 | UGGUACAUGGGAGGAUAUGGGCAUGAGACAUGAGGAUCACCCAUGUAUUAAAAGCCGAGAGGCAUCUAGAAGGCCCAUGUACCU [JL SSNG1 3.89] (Eterna round: R96, puzzle: Same State NG 2) | 15.8 | 80.2 | 158 |  |  | 
19 | AGUCCAGCAUGAGCUGGACAAAAGCAUGUACAUGAGGAUCACCCAUGUUCAUGUACAAGCUUUUUGCUCGUCUUAAG [Mat - hsa-mir-208a - Mod of JL - 63] (puzzle: Sensor for hsa-mir-208a) |  |  |  | 568 | 18 | 802
20 | CCGAUUUAUGGAGGAUAUGGAGCCUUAUUGGCUCCAGAAGGCUAAUAACAUGAGGAUCACCCAUGUCGGCGGUCUAAUGACCGA [Eli NG1ss - 52] (Eterna round: R96, puzzle: Same State NG 1) | 39.2 | 47.5 | 91.6 |  |  | 
21 | GCAGGACAUGAGGAUCACCCAUGUCUCAAAUAUUGAGGAUAUGGACACGGUAUAUCCGAACCAGAAGGCAACCUGC [SS1 Teenbexe 20] (puzzle: Same State 1) |  |  |  |  | 47.3 | 
22 | CCCUGAGGUAGCCCACAGGGACAUGAGGAUCACCCAUGUACACAGGAUAUCGAGGGCUCCGCCUUCGAGAAGGGUGAUCAAACU [Geditedi] (Eterna round: R96, puzzle: Same State NG 3) | 148 | 18.2 | 53.4 |  |  | 
23 | GUUAAACAUGAGGAUCACCCAUGUAAUCAUAUGGGAGGAUAUGGGAAUUAAUUAAUUAAACCAGAAGGCCUAAUUG [Mat - Same State 1 - D83] (puzzle: Same State 1) |  |  |  | 19.6 | 87.4 | 92.3
24 | UCUAUUGUGGUAGGAUAUCUAGGAUAUGGGAAGAGCUAAGCUUGGAAGUCACUUCACCCAGAAGGAGAGAAGGACCACACACUU [pwkr ssNG2 2FMN + F9.8] (Eterna round: R96, puzzle: Same State NG 2) | 564 | 121 | 225 |  |  | 
25 | GCUCGAAUCAAAACCAACAUGAGGAUCACCCAUGUAUGUUGGUAGGAUAUCGUUUGCUUUGCAAACGAGAAGGGCCAAACGAGC [SameState NG3 #3] (Eterna round: R96, puzzle: Same State NG 3) | 69.2 | 121 | 127 |  |  | 
26 | CCUUGUAGCGGAGGAUAUGGGCCUCACUCAGUCAAAGAGUGAGAAACAUGAGGAUCACCCAUGUCCCAGAAGGCCGCUGCUUGG [Estiveveza] (Eterna round: R96, puzzle: Same State NG 2) |  | 12.3 |  |  |  | 
27 | UUACUCAUGUAAGGAUAUGCAGCCGAAACGGCUGCAGAAGGUACUAUAAUACAUGAGGAUCACCCAUGUCAAAAUAAUUUUUAC [Mat - Same State NG 1 - JL mod - D71] (Eterna round: R96, puzzle: Same State NG 1) | 44.9 | 21.7 | 27.5 |  |  | 
28 | GCUACCAAAGAAGCCAACAUGAGGAUCACCCAUGUAUGUUGGUAGGAUAUCGUUUGCAAAGCGAACGAGAAGGGCUAAGGUAGC [Mat - Same State NG 3 - JL Mod - D85] (Eterna round: R96, puzzle: Same State NG 3) | 151 | 88.1 | 101 |  |  | 
29 | GCAGGACGAUAAUAUAUCUCACAUGAGGAUCACCCAUGUCGUGAGGAUAUGGAUCCUAAUUGGAUCCAGAAGGCAUGGUCCUGC [Fiskers NG3ss - 31] (Eterna round: R96, puzzle: Same State NG 3) | 18.5 | 14.2 | 20.7 |  |  | 
30 | UACAAUCUAUCUCAGGAUAUCAUGUCAAAGACAUGAGGAUCACCCAUGUACCAGGAAACUGGUUAUGAGAAGGGAGAUAGAUUGU [Mat - Same State 2 - Mod - D24] (puzzle: Same State 2) |  |  |  | 136 | 35.4 | 77.9
31 | GGUGCGAAUAAAGCCUACAUGAGGAUCACCCAUGUAUGUAGGCAGGAUAUCGUUUGCUUUGCAAACGAGAAGGGCUGUCGCACC [JL SSNG3 1.16] (Eterna round: R96, puzzle: Same State NG 3) | 21.9 | 49 | 70.7 |  |  | 
